According to a protein production outcome set (Wang et al. 2014):

Test: label from the status in PepcDB records

In the case of “MQAPRLRVGIFDDGSSTVNMAEKLDSVGHYVTVLHAPEDIRDFELVVIDAHGVEGYVEKLSAFARRGQMFLHTSLTHGITVMDPLETSGGIVMSAHPIGQDRWVASALDELGETIVGLLVGELGGSIVEIADDKRAQLAAALTYAGFLSTLQRDASYFLDEFLGDPDVTSDIVMDSAQQFQALPSLDEVIAQYDSINNPGRQRLFRDLARRQAEISRAQDIELWAIQKEDR”, the protein production is reported as “not failed”.

With “MLRFGFAAVLLVLAGCSAPMGPEALGPGSYQAAPDPGPFLTPADAQRAFPAVVARVEPVAEAICRERTRGVPCDFQIAVDARPGLDPNAFQTLDDYGRPVIGLTLSLISDARNVDELAFVVGHETAHHILGHIPRQRETALTGAVLAGVLAQMGGADAQTIRSVQEFGANVGARSYSKNFELEADGLGTEIAIRAGYDPVHGAQFFTRLPDPGDTFLGSHPPNAQRIAAVRRAAESIGYVSAWLEHHHHHH” the protein production was “failed”.

With “MSSFKGIFGFNRVELKDLLISSIAIAIVVVWPRGFPTFNIGFFLHFIAALLTVGIAFIFHELAHRTVARHFGAWSEFRAWYEGLALAIFLKIILGFTFIAPGAVYIHKDYLKTKENGLISVAGPLTNIVLAVLFMILPIPAIYYSGYYVDISSYGYFVNIFLAMFNLLPIYPFDGSKVMRWNFLVWAVLFIPLIVLYFFV” the protein production was “failed”.

With “MLLSYLIYGLRNGFMVTLGGIAGFVVGAIAAFMAVPLVSGWVTDSGWRLTATVGAAVVLIALGHGLGTMIGRKVRHTVRIKPLHAVDRLIGGVVSVVVAALVMSMLAFSISSLGVPFVSQQLAESRVIRYIDDLTPTPVKSTMAQLRSTVIGDGIPKLIEGIGPVTPVPVPNESTDTPALNQAAESVLKIAGTAFECGQNQTGSGFVVSPGRVVTNAHVVAGVSQPVVEVPDGGALPGRVVYFDSQRDIAVLAVDGLQSSPLPLSADLPAGSSAAFAGYPHGGPFQSKPATVQGISTILVPDIYGNNPSPEQVYKLAGDVQPGNSGGPLLTMQGQVAGLIFAKTTTDAALGFALTMADLEPVAAQAPGLSNPVSAGQCTRK” the protein production was “failed”.

With “MRHGEIARAARSAVPRRARAALPLACAALVAAGLAARAAGAAAPPPAPPAAAPARVLSAAVKGPITGGTVEYLEAALARARTGGFAALVVTLDTPGGQLDATREIVQAMLATEVPVIVWVGPAGARAGSAGVFLTLAADVAAMHPTSNIGAAHPVTGAGKDVAEEAGKDMAKKVENDTAAFARSVAAARGRNADWAEKAVRESVSVTAEEALRLKVADLTAADLPELLAKADGRKVGQGAAARPLKVAGAAIEPYEPTVRQRLLGFLADPNVMAILMLVGMLGIAVEFYHPGMIFPGAVGGFCLFLAFLAMRVIPVNVGAVILLLAGVGLLVAEAYVTAHGLAGLAGAACLVLGTLFFVNTSAPGDWFDPGALRLSPWVIWPTPAALALLLAFMAWNVARVRRAPLQLGAPALVGAPGEALSEIGPAAGEAFVHGEYWQARSAAPIPRGAAVRVVAVEGLTVTVVAAGPGNG” the protein production was “failed”.

In the case of “MLSATSLKIIFAVSIFIVILIAGWYPFKKRLKDDKHIDFPIGETLATGVFLGAALLHMLPESNTLFKEMGYNYPFAFIITGVVFLIFLWFEHLGKELYHHHDAEHPAFAILAWAMLSVHSLMLGAALGFTQYNSMIIMLFLAIITHKWAESLAIAIQLNKSSMSTRKSMVFFFFFSLMTPLGIYFGWYFGHGVETNSLFDPILIAASAGTFLYLGTLHGLERCVMVERCCNLSDFSFVIIGFLLMASVAIYV”, the protein production is reported as “failed”.

With “MSHGGGGHAAELYPEEQIFAVGIALSLVGCYLANFLSPYGLGMLIGGLLASAACVAGANTVRKVAAYGLGTGVPSIGMVSLGMGTLAAVAGVLIPDYFNLPYLVAPIITLIVSAVIGYIVGRLTVNPVGMKIPIMVRSMTFLSIAGAMALLGFTVAYVGSLEPQKYIDYALNNGMMALAFIAAGMAILHPFNACLGPNESHKRTLTLAVACGFITWFVFSVVKLDIVSIIVSIILWAIVYVKFVKMSFKDACAVLHVPEIPKKEE” the protein production was “failed”.

In the case of “MDRKLLHLLCSPDTRQPLSLLESKGLEALNKAIASGTVQRADGSIQNQSLHEALITRDRKQVFRIEDSIPVLLPEEAIATIQIANFPDKLEHHHHHH”, the protein production is reported as “not failed”.

In the case of “MDLVLDLLATVSRWSRSNLSEISLALVGCLLVLFGTDVKAWAEQRLGGLAGALRVPFMALMVMIGSGAALIYATPWVVKGLSQFNNYALAPVLLVVLVLIGVVADRRG”, the protein production is reported as “failed”.

With “MADLINILNHFVQEQPEAVAVRHTNDELTYKQLDEESSKLAHLLQDSKKPMILYGHMSPYMIVGMIGAIKSGCGYVPIDTSVPKERVNMIIDKVQPEIIFNTSDETLEQTNAQVLKVSDIQDSQYPIVFDSQMKQNDVVYTIFTSGSTGEPKGVQIEYASLNEFAEWMVSLNKTGTGKEWLNQAPFSFDLSVMAIYPCLTSGGTLNLVDKDMIKKPKLLNEMLVQTPMNVWVSTPSFIEMCLLLPNLNEQQYSSLKQFFFCGEILPHKTAKALVERFPNSMIYNTYGPTEATVAVTSIQITEEILNQYNPLPVGVARPGTKLFATEEGELVIEGQSVSLGYLKNEEKTTAVFNFEDGVRTYHTGDKAKIEDGLWFIQGRIDFQIKLNGYRMELEEIETQLRQSKHVREAVVVPVYKNGKVIHLIGAVVPTEPVEDNLAMTTHIKHELKSRLPEYMIPRKFEWMEQLPLTSNGKLDRKKIAEVVNG” the protein production was “failed”.

For “MTFLSQLSTHADKAFLRRLFAIALPITLQSIMFSSRSLVDVLMLGQLGEAEIAAVGVAARATFVTTIMLVGVTTGGALLTAQYWGAGDKIGVRQSTSLTWMIAMVFAALAVCLFVFFPQPIMGLTTDSQEVIELGSSYLVISSASMFAVACVASMAVGLRAMHQPGLSTFFSGIGILSNVFLNWVLIFGHLGFPALGITGAAIATVISGAIEVGCLFGYLWLKKHIIAFGWGDIRASLVLDKITRFLSLSLPTTFNFLAWAGGLFAYHAIMGQAGVQGLAALSVMTPVESIALAMMIGLSNAAAVLVGNQLGAKNFEPVYYQAWATVILNVLIAFGVAVLLFFTNQLILDAFSALSAETRHLAEQFMVILALGVILRSVPMMVIVGVLRAGGDVKFCLYQDVFAQWIIGIPLAAFAAIYLGWEPQWVYLLFLTEEVVKWCICLPRMKSKKWMKNLIEK”, the protein production was “not failed”.

With “MRTYTAQPDTTRPDTLTVTTYNIGYLSGMRNNEPVVRPDSLFHANMDQAAGYLRAAAPDIVALQEIDFGGARAAHVHQLDTLAARLGYPGAAQAVNWDERYLPFPYGRPAVHFGRTLSGQAVLSRFPVRRHVRRTLPRPPQPFFRDAFYLDRLAQVGVVDVDGRPLAVINVHLEAFDVGTRETQARVVNDLYRRLADRGIPTLLLGDFNSSLSSGEEGGQAGAEDATMQHILAGTDLRSAVNTASADTASATYPADAPARTIDHIFYPPQFFEAVDTQRWCGRPAPPSDHCAVTAALRLPSRAKWPSHEALPPLEDSPTE” the protein production was “failed”.

With “MLELNAKTTALVVIDLQEGILPFAGGPHTADEVVNRAGKLAAKFRASGQPVFLVRVGWSADYAEALKQPVDAPSPAKVLPENWWQHPAALGATDSDIEIIKRQWGAFYGTDLELQLRRRGIDTIVLCGISTNIGVESTARNAWELGFNLVIAEDACSAASAEQHNNSINHIYPRIARVRSVEEILNAL” the protein production was “not failed”.

With “MTVAPTTHVPPARPAAYRELVRQRNSFTVAMTLTFLVLYFLLPLLAGYNKPLMATKVFGNVTFGYVLAFLEFLMGWVMAAIYVRKARTFDRLALEAQVPGGGA” the protein production was “failed”.

With “MARSRVAGSKEAGPKVAGSRSRAAGQGRVGARLADGLRAYRMIAGMWIRSTMAYRASFVMTTFGNFGATALDFVAILLMFSQVDALGGYTLPEIAFLYGVAGIAFGLADLAIGSMDRLGRRVRDGTLDTLLVRPAPVLAQVAADRFALRRLGRITQGLLVFGYAVAALDIAWTPLKVLMVPFMMLSGGAIFAAVFVAGGAFQFVAQDASEVQNSFTYGGQTLLQYPPTVFAADLVRGVTFVVPIAFVNWLPALYVLGRPYPLDLPTWVAFTPPLVAAACCALAGLAWRAGLRSYRSTGS” the protein production was “failed”.

For “MIIDEKRVQEIKNGETSLGIEFGSTRIKAVLIANDFSILASGSFEWETSLENGVWTYSIDEIWKGLQYSYQKLFAEVKEKYGVVLSKIGSIGFSAMMHGYMAFDNKGELLVPFRTWRNTMTEEAAKKLTDLFKFNIPERWSIAHLYQAILRNEPHVEKIDFLTTLAGYIHWQLTGEKVLGIGDASGMFPIDTQTHNYDKNMLETFKNLPEVKKHSLDLEKLLPKVLLAGENAGVLTLEGAKKLDVSGNLQPGIPLCPPEGDAGTGMVATNSVAPRTGNVSAGTSIFAMVVLEKPLNRVHPEIDIVTTPSGDLVAMVHANNGCSDLEAWVNIFQQFTEAINVDMRKDLLYMALYTQAFQGDPDCGGVLAYNYFAGENITGVSEGRPMVVRKAKSNFNLPNFMRAHLFTSLGALKIGMDILLKDEAVKLDKLLGHGGLFKTPIVGQAAVAGAVNAPVSVMETAGEGGAWGIALLASYLRSKENDSTLPEFLSKNVFAGYVAEEVQPDPKDVKGFEEFIERYKKGIAIEQAAVEHLILEHHHHHH”, the protein production was “failed”.

For “MSSTKLIVLKSKELIYTAILLALIVVFVIILINMFKRNDKSDGSQSGPAKAVSAPADPGTGIYNTRYTPGTYSSPLILGENTLSVIVTVDDCQITDVSFQQMGETITTMYPLLESSLEDINTQLHYISSVDDIIPSGDSTYTTKLIIDSIKNALKEAVVN”, the protein production was “failed”.

With “MSNSSMSVVILAAGKGTRMYSDLPKVLHPLAGKPMVQHVIDAAMKLGAQHVHLVYGHGGELLKKTLADPSLNWVLQAEQLGTGHAMQQAAPHFADDEDILMLYGDVPLISVDTLQRLLAAKPEGGIGLLTVKLDNPSGYGRIVRENGDVVGIVEHKDASDAQREINEINTGILVANGRDLKRWLSLLDNNNAQGEFYITDIIALAHADGKKIATVHPTRLSEVEGVNNRLQLSALERVFQTEQAEKLLLAGVMLLDPSRFDLRGELTHGRDITIDTNVIIEGHVILGDRVRIGTGCVLKNCVIGDDSEISPYTVLEDARLDANCTVGPFARLRPGAELAEGAHVGNFVEIKKARLGKGSKAGHLSYLGDAEIGAGVNIGAGTITCNYDGANKFKTIIGDDVFVGSDTQLVAPVTVANGATIGAGTTVTRDVAENELVISRVKQVHIQGWKRPVKKK” the protein production was “not failed”.

For “MEQTTIDGIALTLAGPVQLPLKWVGQDELLQQLLAAWMVIDDRDIPFSPRLIGKPGVGKTTLAYAAARRLGRPVYLFQATMDTRPEDLIITPVIGPDGKIQYAASSLVSAMVKGGVLILDEGNRMSEKAWASLAPLLDDRRYVESIITGLRVPAHRDFRIVVTMNEDASTFEVPEYIHSRLQPQIFIDFPEADEELMILKENLPFAPTRILKYVVDFLQRAHAADELYSVRDGINIARYALKMMAATERDAAELLPLAVERVLGDEALRYLALEHHHHHH”, the protein production was “failed”.

With “AHNLALGAHGEDLAARYLTEAGMEIVDRNWRSRYGEVDLIAAEGDWLVFVEVKTRRGLGYGSPAEAVTFSKQRRIRLLAVEWLRDSGRHWSRVRFDVVAIMIGHGPQPQIEHVRD” the protein production was “failed”.

In the case of “MFIMQPEDTMTLIHDIILASWDILLEAAPYVLFGFFVAGLLKAYVPASFVARHLGRGHVGPVFKAALFGIPLPLCSCGVIPAAAGLRQQGASKGATTSFLIATPETGVDSMAVTWALLDPVMTVARPFAALLTSVAAGLMVDLFPERKRGESEISPPVMSPSRDAALHDGPTTLPAPVIAPVLHGAAGIAAAGSVSLGPIREHAACTCSGHASVAASACCGTSHSVSAPSGASCGCGSAAHAHSGTGCCGHDTPIGQVSGGFSGVVERFRGGMRFAFGELVADIGGWLLLGVVLAAVITILIPDDLFSGTFASGIGGILLMMVVGIPLYVCATASTPIAAAFALKGISPGAALVFLLAGPATNVATITVVARMLGRKAAVIYVAVIGVMSVALGLAVNMLYGWLGMGVTGWVQGSADAEPGMLSAVAAVVLLLLVLYQWLPALVARLRGEAHPAGCGCGH”, the protein production is reported as “failed”.

With “MTSLSSKRVAETLDKLHAEAEAADRALMAEMMAQAERSGETLKDLAAKFVDEERLNYRTTYQEHADHFLAISSAYGRFLYAIARARRATRIVEFGTSMGISTIYLAAALRDNGGGRLIGSEIEPTKVARARAHLEATGLADLVDIREGDALDTLKDVGCEVDILSIDGAFSLYLPVLKLIEPRLTPGAVILGENAFAQDYLDYVRAPANGYFSRSLDIDEGRGNEFTVRVG” the protein production was “failed”.
